According to patent publication US20240010741A1 (MAB DISCOVERY, published 2024):
Substitutions are numbered along the chain they refer to. Names may count otherwise.

B1: MAB-16-0489 (antibody, V domains shown)
VH: EVQLEESGGGLVQPGASLRLSCAASGIDFSRYFYVCWVRQAPGKGLEWVGCFANHDDSIYYAGWMNGRFTISKDTSKTTLYLQMNSLRAEDTATYFCARGVDYTVGYGGAAFNLWGQGTLVTVSS
VL: DIVMTQSPSSLSASVGDRVTITCQASQSIGSYLSWYQQKPGQAPKLLIYRATTLASGVPSRFSGSGSGTDFTLTISSLQPEDFATYYCQSYYRDSSSSAFGQGTKVVIK
notes: humanized anti-CD40 IgG1-LALA antibody of the invention
B2: MAB-16-0262 (antibody, V domains shown)
VH: EVQLEESGGGLVQPGGSLRLSCAASGFDFSTNAMCWVRQAPGKGLEWVACIAAGSSIITYYASWAKGRFTISKDTSKTTLYLQMNSLRAEDTAVYFCARGLSRFALWGQGTLVTVSS
VL: DIVMTQSPSSLSASVGDRVTITCQASQSISSYLSWYQQKPGQAPKLLIYLTSTLASGVPSRFSGSGSGTDFTLTISSLQPEDFATYYCQGYYSSSSYVSNGFGQGTKVVIK
notes: Humanized IgG1-LALA (L234A, L235A in the human IgG1 Fc, EU numbering)
B3: MAB-16-0451 (antibody, V domains shown)
VH: B2 VH with T31S, A33T, A52Y, I57G, I58S, T75I, V94T, A105S
VL: DIVMTQSPSSLSASVGDRVTITCQASQSISNYLAWYQQKPGQAPKLLIYDASKLASGVPSRFSGSGSGTDFTLTISSLQPEDFATYYCQGGDYYGSSYVVAFGGGTKVVIK
notes: as for B2
B4: CD40L containing a mouse-IgG2a Fc-tag (AB Biosciences) (Fc fusion, UniProt P29965 113-261, looked up)
chain: MQKGDQNPQIAAHVISEASSKTTSVLQWAEKGYYTMSNNLVTLENGKQLTVKRQGLYYIYAQVTFCSNREASSQAPFIASLCLKSPGRFERILLRAANTHSSAKPCGQQSIHLGGVFELQPGASVFVNVTDPSQVSHGTGFTSFGLLKL
notes: not shown: mouse IgG2a Fc tag
B5: MAB-16-0484 (antibody, V domains shown)
VH: EVQLEESGGGLVQPGGSLRLSCAASGIDFSRYYYICWVRQAPGKGPEWVACFANGDGSTYYASWAKGRFTISKDTSKTTLYLQMNSLRAEDTATYFCARGADYSGGAAAFNLWGQGTLVTVSS
VL: DIQMTQSPSSLSASVGDRVTITCQASQSISSRLAWYQQKPGQAPKLLIYRASTLASGVPSRFSGSGSGTDFTLTISSLQPEDFATYYCQDYYGSSTEYNAFGQGTKVVIK
notes: as for B1
B6: MAB-16-0267 (antibody, V domains shown)
VH: EVQLEESGGDLVQPGASLRLSCAASGFDFNSNAMSWVRQAPGKGLEWVASIYAGGSGSTYYASWAKGRFTISKDTSKTTLYLQMNSLRAEDTATYFCARGITRLPLWGQGTLVTVSS
VL: B5 VL with R32Y, R50D, T53K, D90G, Y91T, G93Y, S94G, E97T, Y98I, N99S
notes: as for B1
B7: MAB-16-0406 (antibody, V domains shown)
VH: B5 VH with I35M, F52Y, A53S, G105A
VL: B5 VL with Q27E, S30G, S31N, R32A, A34V, T53I, A100T
notes: as for B1
B8: MAB-16-0400 (antibody, V domains shown)
VH: EVQLEESGGGLVQPGGSLRLSCAASGIDFSRYFYMCWVRQAPGKGLEWVACIGPGVSGDTYYASWAKGRFTISGDTSKTTLYLQMNSLRAEDTATYFCARGVDYTYGDAGAAFNLWGQGTLVTVSS
VL: DIVMTQSPSSLSASVGDRVTITCQASQSISSYLAWYQQKPGQAPKLLIYRASILASGVPSRFSGSGSGTDFTLTISSLQPEDFATYYCQTYYSSRTYSYGSPNAFGQGTKVVIK
notes: as for B1
B9: CP-870,893 (antibody, V domains shown)
VH: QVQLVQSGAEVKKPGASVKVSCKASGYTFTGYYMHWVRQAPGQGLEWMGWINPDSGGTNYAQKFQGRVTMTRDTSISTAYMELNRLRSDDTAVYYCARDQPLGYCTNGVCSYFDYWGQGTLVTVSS
VL: DIQMTQSPSSVSASVGDRVTITCRASQGIYSWLAWYQQKPGKAPNLLIYTASTLQSGVPSRFSGSGSGTDFTLTISSLQPEDFATYYCQQANIFPLTFGGGTKVEIKR
B10: MAB-16-0346 (antibody, V domains shown)
VH: EVQLEESGGGLVQPGGSLRLSCAASGFDFSTNAVSWVRQAPGKGLEWVGSISAGSSGSTYYASWAKGRFTISKDTSKTTLYLQMNSLRAEDTATYFCARGYTYLTLWGQGTLVTVSS
VL: DIVMTQSPSSLSASVGDRVTITCQASHSISSTYLSWYQQKPGQAPKLLIYRASTLASGVPSRFSGSGSGTDFTLTISSLQPEDFATYYCQYTDYGSSYVSTFGQGTKVVIK
notes: as for B1
B11: MAB-16-0464 (antibody, V domains shown)
VH: B10 VH with T31S, V34M, S50T, S52Y, S56N, S58N, Y60D, Y101A, T102S, L104F
VL: DIVMTQSPSSLSASVGDRVTITCQASESVVSNNRLAWYQQKPGQAPKLLIYLASTLPSGVPSRFSGSGSGTDFTLTISSLQPEDFATYYCAGYKSSSTDGTAFGQGTKVVIK
notes: as for B2

Assays:
[1] = target: T1, cell-expressed CD40 (UniProt P25942 21-277, limits assumed); assay: cell binding on HEK-Blue-CD40L cells, Alexa-Fluor-488 anti-human IgG, high content imaging
T1 construct: whole, on cells; also called CD40 on HEK-Blue-CD40L cells; cell surface CD40
Protocol: Antibodies were added to final concentrations ranging from 1.25 μg/ml to 0.01 ng/ml in 5 μl medium. After 24h cells were washed three times with 25 μl wash buffer (PBS, 0.05% Tween) before Alexa-Fluor-488-conjugated goat anti-human-IgG (Jackson Laboratories) was added at a concentration of 0.8 μg/ml in 20 μl medium. Four hours later, 5 μl Hoechst dye in medium was added to a final concentration of 51.1 µg/ml. Fluorescent cell binding signals were measured using a CellInsight automated high content imager (Thermo Fisher Scientific). Fitting curves and EC50 calculation were obtained by using Excel (Microsoft) and XLfit (IDBS).

[2] = target: T2, recombinant CD40 protein (UniProt P25942 21-193, limits assumed); assay: CD40L competition ELISA: antibody (5 µg/ml) preincubated with recombinant CD40 (1.7 µg/ml), complex added to coated CD40L, detected with anti-human F(ab)2-peroxidase; a low signal means competition with CD40L
T2 construct: Construct not described; also called CD40 recombinant protein
Protocol: Competition of humanized anti-CD40 IgG1-LALA monoclonal antibodies with CD40L binding to CD40 was tested using an ELISA assay. CD40L was coated to the surface of a 384-well Nunc™ MaxiSorp™ plate in a volume of 25 μl PBS and at a concentration of 1 μg/ml for one hour at room temperature. Antibodies were pre-incubated at a concentration of 5 μg/ml with recombinant CD40 protein at a concentration of 1.7 μg/ml in a total volume of 40 μl for 1.5 hours at room temperature in ELISA buffer (PBS, 0.5% BSA, 0.05% Tween). The Nunc™ MaxiSorp™ plate was washed three times with wash buffer (PBS, 0.1% Tween) and blocked for one hour at room temperature with PBS, 2% BSA, 0.05% Tween. After three washes in wash buffer, 25 μl of the antibody-CD40 complex were added to the Nunc™ MaxiSorp™ plate wells and incubated for one hour at room temperature. After 3 washes in wash buffer, wells were incubated with 25 μl of a 1:2000 dilution of anti-human peroxidase-linked, species specific F(ab) 2 Fragment from goat (AbD Serotec) in ELISA buffer for one hour at room temperature. Wells were washed six times with wash buffer and 30 μl/well TMB substrate solution (Invitrogen) were added. After 10 minutes at room temperature, 30 μl Stop solution (1M HCl) was added per well and absorbance at 450 and 620 nm wavelength was measured using a Tecan M1000 microplate reader.

[3] = target: soluble human CD40 monomeric protein (Acro Biosystems) (human, UniProt P25942 21-193); assay: SPR Biacore T200, antibody captured via anti-human Fc, soluble CD40 as analyte, 1:1 model
Protocol: (§1) a. The biochemical affinities of the antibodies of the invention was determined by surface plasmon resonance measurements. Antibodies were reversibly immobilized to a CM5 sensor chip surface via an anti-human Fc antibody. The kinetics of the interaction of immobilized antibodies with soluble human or cynomolgus monkey CD40 monomeric protein (Acro Biosystems) were analysed on a Biacore T200 SPR instrument. Kinetic data were determined using a Langmuir 1:1 binding model.
(§2) Biochemical affinities were measured by surface plasmon resonance on a Biacore T200 SPR instrument. Kinetic data were determined using a Langmuir 1:1 binding model.

[4] = target: T3, soluble cynomolgus monkey CD40 monomeric protein (Acro Biosystems) (cynomolgus monkey, UniProt G7PG38 21-193); assay: SPR (Biacore T200), antibody captured via anti-human Fc on CM5 chip, soluble cynomolgus CD40 as analyte, Langmuir 1:1 model
T3 construct: May be the same reagent as m11; also called cynomolgus monkey CD40 protein
Protocol: as §1, §2

[5] = target: T4, Recombinant cyno-CD40 protein (Acro Biosystems) (cynomolgus monkey (Macaca fascicularis), UniProt G7PG38 21-193); assay: ELISA on coated recombinant cynomolgus monkey CD40
T4 construct: also called cynomolgus monkey-CD40 protein; recombinant cynomolgus monkey CD40 recombinant protein
Protocol: Binding of humanized anti-CD40 IgG1-LALA monoclonal antibodies to cynomolgus monkey-CD40 protein was tested in a biochemical ELISA. Recombinant cyno-CD40 protein (Acro Biosystems) was incubated in a 384-well Nunc™ MaxiSorp™ plate at a concentration of 0.5 μg/ml in PBS for one hour at room temperature. After washing three times with wash buffer (PBS, 0.1% Tween), plates were blocked with PBS, 2% BSA, 0.05% Tween for one hour at room temperature. Plates were washed again three time with wash buffer and antibodies at concentrations ranging from 500 to 0.03 ng/ml in PBS, 0.5% BSA, 0.05% Tween were incubated for one hour at room temperature. After 3 washes in wash buffer, wells were incubated with 12.5 μl of a 1:3000 dilution of anti-human peroxidase-linked, species specific F(ab) 2 Fragment from goat (AbD Serotec) in ELISA buffer for one hour at room temperature. Wells were washed six times with wash buffer and 15 μl/well TMB substrate solution (Invitrogen) were added. After 10 minutes at room temperature 15 μl Stop solution (1M HCl) were added per well and absorbance at 450 and 620 nm wavelength was measured using a Tecan M1000 microplate reader. Fitting curves and EC50 calculation were obtained by using Excel (Microsoft) and XLfit (IDBS).

[6] = target: T1, cell-expressed CD40; assay: flow cytometry on HEK-Blue-CD40L cells preincubated with isotype control IgG1-LALA, CD40L-mouse IgG2a Fc titrated, DyLight 405 anti-mouse IgG [Detection of CD40L binding]
Protocol: (§3) a. Binding of anti CD40 antibodies of the invention to HEK-Blue-CD40L™ cells in the presence of CD40L was tested to verify whether the antibodies bind to the CD40L binding site of cell surface CD40. […] CD40L containing a mouse-IgG2a Fc-tag (AB Biosciences) was added at concentration ranging from 10000 to 9.8 ng/ml and cells were incubated for 60 minutes at 4° C. Anti-CD40 antibodies and CD40L bound to cell-expressed CD40 were detected using secondary DyLight 405-conjugated anti-mouse IgG and Alexa Fluor 488-conjugated anti-human IgG (Jackson Laboratories) and analyzed using FACSVerse instrument (BD).

[7] = target: T1, cell-expressed CD40; assay: flow cytometry on HEK-Blue-CD40L cells preincubated with CP870,893 IgG1-LALA at EC90, CD40L-mouse IgG2a Fc titrated, DyLight 405 anti-mouse IgG [Detection of CD40L binding]
Protocol: as §3

Sequence of soluble human CD40 monomeric protein (Acro Biosystems) (P25942 21-193 limits assumed): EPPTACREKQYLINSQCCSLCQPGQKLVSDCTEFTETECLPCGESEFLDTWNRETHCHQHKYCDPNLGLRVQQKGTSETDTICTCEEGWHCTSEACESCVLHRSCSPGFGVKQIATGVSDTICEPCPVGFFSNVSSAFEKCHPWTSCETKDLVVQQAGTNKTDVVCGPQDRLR
T2 sequence (P25942 21-193 limits assumed): as above
T1 sequence (P25942 21-277 limits assumed): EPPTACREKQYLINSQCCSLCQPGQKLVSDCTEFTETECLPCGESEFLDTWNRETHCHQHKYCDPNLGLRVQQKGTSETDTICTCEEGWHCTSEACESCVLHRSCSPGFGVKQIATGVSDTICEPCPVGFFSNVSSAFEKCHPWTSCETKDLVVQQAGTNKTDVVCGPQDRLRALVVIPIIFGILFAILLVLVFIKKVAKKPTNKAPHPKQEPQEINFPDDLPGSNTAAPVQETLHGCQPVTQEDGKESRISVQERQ

Row | Binder | EC50 [1] [ng/mL] | OD at 450 nm [2] [OD] | Kd [3] [nM] | Kd [4] [nM] | EC50 [5] [ng/mL] | EC50 (read off the curve) [6] [ng/mL] | EC50 (read off the curve) [7] [ng/mL]
1 | B1 | 3.2 | 0.01 |  |  |  |  | 
2 | B2 | 6.3 | 0.11 | 15.7 | 10.3 | 11.9 |  | 
3 | B3 | 8.9 | 0.13 | 1.2 | 0.8 | 10.4 |  | 
4 | B4 |  |  |  |  |  | ~200 | ~400
5 | B5 | 21.9 | 0.07 |  |  | 31.8 |  | 
6 | B6 | 3.4 | 0.1 |  |  | 7 |  | 
7 | B7 | 6.6 | 0.07 |  |  | 11.1 |  | 
8 | B8 | 5.8 | 0.08 |  |  |  |  | 
9 | B9 |  |  | 8.9 |  | 8 |  | 
10 | B10 | 49.5 | 0.09 |  |  | 8.2 |  | 
11 | B11 | 3 | 0.09 | 2.6 | 2.2 | 8 |  | 
